Source: US12679884 (University of Washington, dated 2026)
Each block holds one molecule with its values, some of them ahead of it.

Key:
GAL4-RpBphP1 = experiment: cell-based or functional assay
[1] = molecular target: the molecule itself; experiment: analytical SEC of LDB-3 alone at different injected amounts, Superdex 200 Increase 10/300 GL
[2] = molecular target: the molecule itself; experiment: analytical SEC of DrBphP alone, Superdex 200 Increase 10/300 GL
[3] = molecular target: the molecule itself; experiment: analytical SEC of LDB-14 alone at different injected amounts, Superdex 200 Increase 10/300 GL

light-induced luciferase expression over dark expression (mammalian two-hybrid, HEK293T, 775-nm light) (GAL4-RpBphP1): 2.95 fold
Molecule: NLS-PpsR2-p65

B1: LDB-3-His (VHH, not shown: small tags and cut ends)
VHH: EVQLQASGGGFVQPGGSLRLSCAASGFTWDHYIMGWFRQAPGKEREFVSAISENGDAWNYYADSVKGRFTISRDNSKNTVYLQMNSLRAEDTATYYCAIGFDVPSGRSWQGSHFWMYWGQGTQVTVSS
notes: Synthetic nanobody, expressed in E. coli WK6; used in SEC, ITC and photoconversion assays; SEC: mixture of monomer and dimer
binding result [1]: binds

B2: DrBphP-His, light form (photosensory module of Deinococcus radiodurans bacteriophytochrome, biliverdin-bound, after 654-nm illumination) (other)
chain: MSRDPLPFFPPLYLGGPEITTENCEREPIHIPGSIQPHGALLTADGHSGEVLQMSLNAATFLGQEPTVLRGQTLAALLPEQWPALQAALPPGCPDALQYRATLDWPAAGHLSLTVHRVGELLILEFEPTEAWDSTGPHALRNAMFALESAPNLRALAEVATQTVRELTGFDRVMLYKFAPDATGEVIAEARREGLHAFLGHRFPASDIPAQARALYTRHLLRLTADTRAAAVPLDPVLNPQTNAPTPLGGAVLRATSPMHMQYLRNMGVGSSLSVSVVVGGQLWGLIACHHQTPYVLPPDLRTTLEYLGRLLSLQVQVKEAADVAAFRQSLREHHARVALAAAHSLSPHDTLSDPALDLLGLMRAGGLILRFEGRWQTLGEVPPAPAVDALLAWLETQPGALVQTDALGQLWPAGADLAPSAAGLLAISVGEGWSECLVWLRPELRLEVAWGGATPDQAKDDLGPRHSFDTYLEEKRGYAEPWHPGEIEEAQDLRDTLTGAL
modifications: biliverdin chromophore bound
notes: Same polypeptide as m2; differs only in the photoconverted state (654-nm light); Used in SEC, ITC, BLI and photoconversion assays; also called DrBphP light form
binding result [2]: binds

B3: DrBphP-His, dark form (photosensory module of Deinococcus radiodurans bacteriophytochrome, biliverdin-bound, after 775-nm illumination) (other)
chain: B2 chain
modifications: biliverdin chromophore bound
notes: Same polypeptide as m1; differs only in the photoconverted state (775-nm light); also called DrBphP dark form
binding result [2]: binds

B4: LDB-14-His (VHH, not shown: small tags and cut ends)
VHH: EVQLQASGGGFVQPGGSLRLSCAASGTTSRWESMGWFRQAPGKEREFVSAISWQNNSVPYYADSVKGRFTISRDNSKNTVYLQMNSLRAEDTATYYCAAQHNFLGHRYWGQGTQVTVSS
notes: Synthetic nanobody, expressed in E. coli WK6; used in SEC, ITC and photoconversion assays; SEC: mainly monomer
binding result [3]: binds
